Target: the molecule itself
Test: crystal structure

B1: SonM, borosin α-N-methyltransferase (wild type) (enzyme, Shewanella oneidensis MR-1)
chain: MGSLVCVGTGLQLAGQISVLSRSYIEHADIVFSLLPDGFSQRWLTKLNPNVINLQQFYAQNGEVKNRRDTYEQMVNAILDAVRAGKKTVCALYGHPGVFACVSHMAITRAKAEGFSAKMEPGISAEACLWADLGIDPGNSGHQSFEASQFMFFNHVPDPTTHLLLWQIAIAGEHTLTQFHTSSDRLQILVEQLNQWYPLDHEVVIYEAANLPIQAPRIERLPLANLPQAHLMPISTLLIPPAKKLEYNYAILAKLGIGPEDLG
stoichiometry N: 2

Reference: paper PMC10549244 (RSC Chemical Biology, 2023)
